The record followed here is the Human Domainome abundance scans (Beltran et al. 2025).

± gives the uncertainty stated by the source.

To fix the notation:
B1: DnaJ homolog subfamily C member 2, residues 451 to 503; numbered along this chain, Q99543 (parent)
chain: SKNWSEDDLQLLIKAVNLFPAGTNSRWEVIANYMNIHSSSGVKRTAKDVIGKA

In the data set the parent is B1. In words: abundance fitness (aPCA) (normalised: wild type 0, dead -1); higher = more abundant; growth selection in yeast, the domain comes from the species named. As to conditions: Homo sapiens.
With SKNWSEDDLQLLIKAVNLFPAGTNSRWEVIANYMNIHSSSGVRRTAKDVIGKA [K43R], the abundance fitness is -0.045 ± 0.058. Regarding SKNWSEDDLQLLIKAVNLFPAGTNSRWEVIANYMNIHSSSGVNRTAKDVIGKA [K43N], the abundance fitness is -0.025 ± 0.12. In the case of SKNWSEDDLQLLIKAVNLFPAGTNSRWEVIANYMNIHSSSGVTRTAKDVIGKA [K43T] it was -0.006 ± 0.084.

For the variant SKNWSEDDLQLLIKAVNLFPAGTNSRWEVIANYMNIHSSSGVGRTAKDVIGKA [K43G], the abundance fitness was -0.302 ± 0.058. In the case of SKNWSEDDLQLLIKAVNLFPAGTNSRWEVIANYMNIHSSSGVPRTAKDVIGKA [K43P] it was -0.209 ± 0.086; in that of SKNWSEDDLQLLIKAVNLFPAGTNSRWEVIANYMNIHSSSGVWRTAKDVIGKA [K43W], -0.259 ± 0.069; in that of SKNWSEDDLQLLIKAVNLFPAGTNSRWEVIANYMNIHSSSGVERTAKDVIGKA [K43E], -0.096 ± 0.075.

As to SKNWSEDDLQLLIKAVNLFPAGTNSRWEVIANYMNIHSSSGVHRTAKDVIGKA [K43H], the abundance fitness is -0.173 ± 0.099. With SKNWSEDDLQLLIKAVNLFPAGTNSRWEVIANYMNIHSSSGVSRTAKDVIGKA [K43S], the abundance fitness is -0.153 ± 0.065. In the case of SKNWSEDDLQLLIKAVNLFPAGTNSRWEVIANYMNIHSSSGVIRTAKDVIGKA [K43I] it was -0.147 ± 0.12; in that of SKNWSEDDLQLLIKAVNLFPAGTNSRWEVIANYMNIHSSSGVLRTAKDVIGKA [K43L], -0.067 ± 0.063; in that of SKNWSEDDLQLLIKAVNLFPAGTNSRWEVIANYMNIHSSSGVFRTAKDVIGKA [K43F], -0.179 ± 0.083.

Take SKNWSEDDLQLLIKAVNLFPAGTNSRWEVIANYMNIHSSSGVMRTAKDVIGKA [K43M]: the abundance fitness was -0.146 ± 0.095. In the case of SKNWSEDDLQLLIKAVNLFPAGTNSRWEVIANYMNIHSSSGVKRTAPDVIGKA [K47P] it was -0.133 ± 0.11; in that of SKNWSEDDLQLLIKAVNLFPAGTNSRWEVIANYMNIHSSSGVKRTAQDVIGKA [K47Q], 0.057 ± 0.089; in that of SKNWSEDDLQLLIKAVNLFPAGTNSRWEVIANYMNIHSSSGVKRTAYDVIGKA [K47Y], -0.212 ± 0.11. The value for SKNWSEDDLQLLIKAVNLFPAGTNSRWEVIANYMNIHSSSGVKRTAGDVIGKA [K47G] was -0.039 ± 0.065; that for SKNWSEDDLQLLIKAVNLFPAGTNSRWEVIANYMNIHSSSGVKRTANDVIGKA [K47N] was -0.065 ± 0.089; that for SKNWSEDDLQLLIKAVNLFPAGTNSRWEVIANYMNIHSSSGVKRTAMDVIGKA [K47M] was -0.111 ± 0.1. In the case of SKNWSEDDLQLLIKAVNLFPAGTNSRWEVIANYMNIHSSSGVKRTALDVIGKA [K47L] it was -0.097 ± 0.065. In the case of SKNWSEDDLQLLIKAVNLFPAGTNSRWEVIANYMNIHSSSGVKRTAVDVIGKA [K47V], the abundance fitness was -0.095 ± 0.072. In the case of SKNWSEDDLQLLIKAVNLFPAGTNSRWEVIANYMNIHSSSGVKRTAWDVIGKA [K47W] it was -0.266 ± 0.089.

Regarding SKNWSEDDLQLLIKAVNLFPAGTNSRWEVIANYMNIHSSSGVKRTAEDVIGKA [K47E], the abundance fitness was 0 ± 0.11. With SKNWSEDDLQLLIKAVNLFPAGTNSRWEVIANYMNIHSSSGVKRTAIDVIGKA [K47I], the abundance fitness is -0.017 ± 0.12. Turning to SKNWSEDDLQLLIKAVNLFPAGTNSRWEVIANYMNIHSSSGVKRTAADVIGKA [K47A], the abundance fitness is 0.054 ± 0.079. On to SKNWSEDDLQLLIKAVNLFPAGTNSRWEVIANYMNIHSSSGVKRTAFDVIGKA [K47F], for which the abundance fitness was -0.22 ± 0.13. In the case of SKNWSEDDLQLLIKAVNLFPAGTNSRWEVIANYMNIHSSSGVKRTACDVIGKA [K47C] it was -0.206 ± 0.091. With SKNWSEDDLQLLIKAVNLFPAGTNSRWEVIANYMNIHSSSGVKRTATDVIGKA [K47T], the abundance fitness was 0.08 ± 0.091. In the case of SKNWSEDDLQLLIKAVNLFPAGTNSRWEVIANYMNIHSSSGVKRTASDVIGKA [K47S] it was 0.033 ± 0.075; in that of SKNWSEDDLQLLIKAVNLFPAGTNSRWEVIANYMNIHSSSGVKRTARDVIGKA [K47R], -0.056 ± 0.065; in that of SKNWSEDDLQLLIKAVNLFPAGTNSRWEVIANYMNIHSSSGVKRTGKDVIGKA [A46G], -0.246 ± 0.06.

In the case of SKNWSEDDLQLLIKAVNLFPAGTNSRWEVIANYMNIHSSSGVKRTQKDVIGKA [A46Q], the abundance fitness is -0.089 ± 0.097. In the case of SKNWSEDDLQLLIKAVNLFPAGTNSRWEVIANYMNIHSSSGVKRTHKDVIGKA [A46H] it was -0.309 ± 0.09.

Turning to SKNWSEDDLQLLIKAVNLFPAGTNSRWEVIANYMNIHSSSGVKRTYKDVIGKA [A46Y], the abundance fitness is -0.305 ± 0.082. In the case of SKNWSEDDLQLLIKAVNLFPAGTNSRWEVIANYMNIHSSSGVKRTEKDVIGKA [A46E] it was -0.067 ± 0.086; in that of SKNWSEDDLQLLIKAVNLFPAGTNSRWEVIANYMNIHSSSGVKRTFKDVIGKA [A46F], -0.366 ± 0.091; in that of SKNWSEDDLQLLIKAVNLFPAGTNSRWEVIANYMNIHSSSGVKRTMKDVIGKA [A46M], -0.22 ± 0.099. In the case of SKNWSEDDLQLLIKAVNLFPAGTNSRWEVIANYMNIHSSSGVKRTCKDVIGKA [A46C] it was -0.094 ± 0.077; in that of SKNWSEDDLQLLIKAVNLFPAGTNSRWEVIANYMNIHSSSGVKRTTKDVIGKA [A46T], -0.114 ± 0.086; in that of SKNWSEDDLQLLIKAVNLFPAGTNSRWEVIANYMNIHSSSGVKRTRKDVIGKA [A46R], -0.222 ± 0.061.

In the case of SKNWSEDDLQLLIKAVNLFPAGTNSRWEVIANYMNIHSSSGVKRTPKDVIGKA [A46P], the abundance fitness was -0.083 ± 0.1. The value for SKNWSEDDLQLLIKAVNLFPAGTNSRWEVIANYMNIHSSSGVKRTLKDVIGKA [A46L] was -0.355 ± 0.068. Regarding SKNWSEDDLQLLIKAVNLFPAGTNSRWEVIANYMNIHSSSGVKRTNKDVIGKA [A46N], the abundance fitness is -0.567 ± 0.1. In the case of SKNWSEDDLQLLIKAVNLFPAGTNSRWEVIANYMNIHSSSGVKRTSKDVIGKA [A46S] it was -0.099 ± 0.068; in that of SKNWSEDDLQLLIKAVNLFPAGTNSRWEVIANYMNIHSSSGVKRTKKDVIGKA [A46K], -0.087 ± 0.095; in that of SKNWSEDDLQLLIKAVNLFPAGTNSRWEVIANYMNIHSSSGVKRTWKDVIGKA [A46W], -0.348 ± 0.089.

With SKNWSEDDLQLLIKAVNLFPAGTNSRWEVIANYMNIHSSSGVKRTIKDVIGKA [A46I], the abundance fitness is -0.167 ± 0.091. In the case of SKNWSEDDLQLLIKAVNLFPAGTNSRWEVIANYMNIHSSSGVKRIAKDVIGKA [T45I] it was -0.33 ± 0.15; in that of SKNWSEDDLQLLIKAVNLFPAGTNSRWEVIANYMNIHSSSGVKRTAKCVIGKA [D48C], -0.393 ± 0.1; in that of SKNWSEDDLQLLIKAVNLFPAGTNSRWEVIANYMNIHSSSGVKRTAKAVIGKA [D48A], -0.262 ± 0.071.
